# Laboratory results reported in patent publication US20220041711A1 (NGM BIOPHARMACEUTICALS, published 2022).
# Like-named read-outs stand apart in the source and are kept apart here.
# B1: anti-LAIR-1 antibody ch62G10 (antibody, V domains shown)
# VH: EVQLVETGGGLVQPKGSLKLSCATSGFTFNINAMNWVRQAPGKGLEWVARIRTKNNNFATYYADSVKDRFTISRDDSQSMLYLQMNNLKTEDTAMYYCVRGPYFDYWGQGTTLTVSS
# VL: DIQMTQSPASQSASLGESVTITCLASQTIGTWLAWYQQKPGKSPQLLIYAATSLADGVPSRFSGSGSGTKFSFKISNLQAEDFVTYYCQQLYSTPYTFGGGTKLEIK
# notes: The prefix 'ch' is not defined
# B2: human LAIR-1-Fc (Fc fusion)
# chain: QEEDLPRPSISAEPGTVIPLGSHVTFVCRGPVGVQTFRLERESRSTYNDTEDVSQASPSESEARFRIDSVSEGNAGPYRCIYYKPPKWSEQSDYLELLVKETSGGPDSPDTEPGSSAGPTQRPSDNSHNEHAPASQGLKAEHLY
# notes: also called biotinylated human LAIR-1-Fc; not shown: a Fc region
# B3: LAIR-2-Fc (Fc fusion)
# chain: QEGALPRPSISAEPGTVISPGSHVTFMCRGPVGVQTFRLEREDRAKYKDSYNVFRLGPSESEARFHIDSVSEGNAGLYRCLYYKPPGWSEHSDFLELLVKESSGGPDSPDTEPGSSAGTVPGTEASGFDAP
# notes: LAIR-2 soluble protein fused to a Fc region; also called human LAIR-2-Fc; not shown: a Fc region
# Assays:
# [1] = biological target: T1, cyno LAIR-1-ECD (cynomolgus monkey); experiment: SPR (Biacore) as in Example 2
# T1 construct: Recombinant, expressed in mammalian cells; also called extracellular region of cyno LAIR-1
# T1 chain: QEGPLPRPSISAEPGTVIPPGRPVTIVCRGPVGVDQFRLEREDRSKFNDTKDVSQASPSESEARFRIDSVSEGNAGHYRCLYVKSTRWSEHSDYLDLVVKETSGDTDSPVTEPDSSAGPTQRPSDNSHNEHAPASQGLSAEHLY
# Experimental: (§1) The binding affinities of purified anti-LAIR-1 antibodies to human LAIR-1 and cyno LAIR-1 were measured using a Biacore system (GE Healthcare LifeSciences). Briefly, anti-Fc antibody (Sigma-Aldrich) was immobilized on all four flow cells of a CM5 chip using amine coupling reagents (GE Healthcare LifeSciences). Antibodies were captured on flow cells 2, 3, and 4 using flow cell 1 as a reference. Concentrations ranging from 3.3-10 nM of human or cyno LAIR-1-ECD were injected at a flow rate of 530 μL/min at 25° C. Kinetic data were collected over time and fit using the simultaneous global fit equation to yield affinity constants (KD values) for each antibody.
# (§2) The binding affinities of the humanized antibodies to human LAIR-1 were measured using a Biacore system as described herein.
# [2] = biological target: T2, human LAIR-1-ECD (human, UniProt Q6GTX8 22-165); experiment: SPR (Biacore) as in Example 2
# T2 construct: Recombinant, expressed in mammalian cells; also called extracellular region of human LAIR-1
# T2 chain: B2 chain
# Experimental: as §1, §2
# [3] = biological target: T3, cyno LAIR-1-CD3ζ chimeric receptor on NFAT-GFP reporter cells (cynomolgus monkey; human); experiment: cell-based or functional assay
# Target sequence in this assay (P20963 other isoform, or with tags, fused parts or gaps mutant limits assumed): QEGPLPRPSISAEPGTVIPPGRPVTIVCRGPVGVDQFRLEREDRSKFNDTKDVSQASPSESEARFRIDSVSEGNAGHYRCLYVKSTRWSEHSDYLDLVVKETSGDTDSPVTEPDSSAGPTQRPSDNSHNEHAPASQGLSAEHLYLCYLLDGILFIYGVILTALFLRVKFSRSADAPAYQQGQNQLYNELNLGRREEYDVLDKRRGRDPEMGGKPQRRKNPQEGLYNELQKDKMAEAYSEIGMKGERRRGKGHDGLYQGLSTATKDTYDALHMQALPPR
# [4] = biological target: T4, human LAIR-1-CD3ζ chimeric receptor on NFAT-GFP reporter cells (human, UniProt P20963 31-164, limits assumed); experiment: cell-based or functional assay
# Target sequence in this assay (P20963 other isoform, or with tags, fused parts or gaps mutant limits assumed): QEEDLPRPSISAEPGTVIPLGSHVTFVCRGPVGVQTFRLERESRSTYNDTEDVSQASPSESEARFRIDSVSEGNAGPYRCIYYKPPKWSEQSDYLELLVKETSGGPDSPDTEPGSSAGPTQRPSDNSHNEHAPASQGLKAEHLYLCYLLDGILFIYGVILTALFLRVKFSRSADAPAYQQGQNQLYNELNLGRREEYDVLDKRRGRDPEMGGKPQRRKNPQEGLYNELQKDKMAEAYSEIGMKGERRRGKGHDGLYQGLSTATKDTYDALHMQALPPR
# [5] = biological target: T3, cyno LAIR-1-CD3ζ chimeric receptor on …; experiment: cell-based or functional assay; remark: listed apart in the source
# [6] = biological target: T4, human LAIR-1-CD3ζ chimeric receptor on …; experiment: cell-based or functional assay; remark: listed apart in the source
# [7] = biological target: T4, human LAIR-1-CD3ζ chimeric receptor on …; experiment: cell-based or functional assay; remark: listed apart in the source
# [8] = biological target: T3, cyno LAIR-1-CD3ζ chimeric receptor on …; experiment: cell-based or functional assay; remark: listed apart in the source
# [9] = biological target: T4, human LAIR-1-CD3ζ chimeric receptor on …; experiment: cell-based or functional assay; remark: listed apart in the source
# [10] = biological target: B2; experiment: ELISA blocking: plate coated with 5 µg/mL human collagen type 1, antibody titrated, 1 µg/mL biotinylated human LAIR-1-Fc, streptavidin-HRP, OD650
# Experimental: Inhibition of the interaction between LAIR-1 and LAIR-1 ligands by anti-LAIR-1 antibodies. […] Plates were incubated with HRP-conjugated streptavidin.
# Plates were washed with PBS and blocked for 1 hour at room temperature in blocking buffer (1% BSA in PBS). […] Plates were washed and incubated with HRP-conjugated streptavidin (Biorad) for 60 minutes at room temperature. Plates were washed and a detectable signal was developed with TMB chromogen solution (Life Technologies) for 5 minutes.
# [11] = biological target: T5, human MARCO expressed on cells (721.221-MARCO, 293T-MARCO) (human, UniProt Q9UEW3 1-520); experiment: flow cytometry, Fc protein at 10 µg/mL on 721.221 cells expressing MARCO, PE anti-Fc secondary
# T5 construct: also called 721.221 cells expressing MARCO
# T5 sequence: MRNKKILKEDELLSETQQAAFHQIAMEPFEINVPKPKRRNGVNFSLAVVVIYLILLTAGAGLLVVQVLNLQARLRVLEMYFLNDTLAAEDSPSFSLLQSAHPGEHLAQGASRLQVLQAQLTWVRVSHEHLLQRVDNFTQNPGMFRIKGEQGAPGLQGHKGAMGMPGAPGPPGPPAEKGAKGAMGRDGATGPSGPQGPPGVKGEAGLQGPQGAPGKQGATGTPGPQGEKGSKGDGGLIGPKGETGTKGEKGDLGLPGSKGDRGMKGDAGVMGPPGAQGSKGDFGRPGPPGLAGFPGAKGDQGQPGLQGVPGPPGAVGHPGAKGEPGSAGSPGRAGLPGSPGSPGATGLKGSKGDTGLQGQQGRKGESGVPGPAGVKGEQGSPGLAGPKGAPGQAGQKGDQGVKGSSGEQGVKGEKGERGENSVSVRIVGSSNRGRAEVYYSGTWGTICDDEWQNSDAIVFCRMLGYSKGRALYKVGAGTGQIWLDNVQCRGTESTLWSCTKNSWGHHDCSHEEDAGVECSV
# Experimental: Binding was detected with a PE-labeled anti-Fc secondary antibody. Binding was measured by flow cytometry using a LSRFortessa™ instrument (BD Biosciences) and analyzed by FlowJo software.
binder,measurement,setting,value
B1,Kd,[1],16 nM
same,koff,[1],0.0043 s⁻¹
same,kon,[1],280000 M⁻¹ s⁻¹
same,Kd,[2],0.9 nM
same,koff,[2],0.00069 s⁻¹
same,kon,[2],770000 M⁻¹ s⁻¹
same,IC50 (read off the curve): % GFP+ cyno LAIR-1 reporter cells on coated MARCO-his,[3],~0.2 nM
same,IC50 (read off the curve): % GFP+ cyno LAIR-1 reporter cells on coated collagen 1,[3],~0.4 nM
same,IC50 (read off the curve): % GFP+ cyno LAIR-1 reporter cells on coated collagen 4,[3],~0.2 nM
same,IC50 (read off the curve): % GFP+ human LAIR-1 reporter cells on coated MARCO-his,[4],~0.06 nM
same,IC50 (read off the curve): % GFP+ human LAIR-1 reporter cells on coated collagen 1,[4],~0.04 nM
same,IC50 (read off the curve): % GFP+ human LAIR-1 reporter cells on coated collagen 4,[4],~0.03 nM
same,IC50 (read off the curve): % GFP+ cyno LAIR-1 reporter cells co-cultured with bEnd.3 cells,[5],~0.2 nM
same,IC50 (read off the curve): % GFP+ human LAIR-1 reporter cells co-cultured with bEnd.3 cells,[6],~0.04 nM
same,IC50 (read off the curve): % GFP+ human LAIR-1 reporter cells on coated MARCO-his,[7],~0.07 nM
same,IC50 (read off the curve): % GFP+ human LAIR-1 reporter cells on coated collagen 1,[7],~0.1 nM
same,IC50 (read off the curve): % GFP+ human LAIR-1 reporter cells on coated collagen 4,[7],~0.1 nM
same,IC50 (read off the curve): % GFP+ cyno LAIR-1 reporter cells on polymerized collagen matrix,[8],~0.2 nM
same,IC50 (read off the curve): % GFP+ human LAIR-1 reporter cells on polymerized collagen matrix,[9],~0.03 nM
same,IC50 (read off the curve),[10],~3 nM
B2,binding result,[11],binds
B3,binding result,[11],binds
